Legend:
[1] = target: Cm-labeled RNC bearing the engineered signal sequence 1A9L; experiment: FRET or BRET
[2] = target: RNC bearing the nascent chain of FtsQ (UniProt P06136); experiment: fluorescence polarisation
[3] = target: SRP(∆FL), SRP(C235) labeled with DACM or acrylodan (E. coli) (UniProt P0AGD7); experiment: time course of acrylodan fluorescence
[4] = target: RNC bearing the nascent chain of firefly luciferase (firefly) [luciferase: P08659]; experiment: fluorescence polarisation
RNC bearing the nascent chain of firefly luciferase (firefly) [luciferase: P08659], sequence (P08659 whole entry, looked up): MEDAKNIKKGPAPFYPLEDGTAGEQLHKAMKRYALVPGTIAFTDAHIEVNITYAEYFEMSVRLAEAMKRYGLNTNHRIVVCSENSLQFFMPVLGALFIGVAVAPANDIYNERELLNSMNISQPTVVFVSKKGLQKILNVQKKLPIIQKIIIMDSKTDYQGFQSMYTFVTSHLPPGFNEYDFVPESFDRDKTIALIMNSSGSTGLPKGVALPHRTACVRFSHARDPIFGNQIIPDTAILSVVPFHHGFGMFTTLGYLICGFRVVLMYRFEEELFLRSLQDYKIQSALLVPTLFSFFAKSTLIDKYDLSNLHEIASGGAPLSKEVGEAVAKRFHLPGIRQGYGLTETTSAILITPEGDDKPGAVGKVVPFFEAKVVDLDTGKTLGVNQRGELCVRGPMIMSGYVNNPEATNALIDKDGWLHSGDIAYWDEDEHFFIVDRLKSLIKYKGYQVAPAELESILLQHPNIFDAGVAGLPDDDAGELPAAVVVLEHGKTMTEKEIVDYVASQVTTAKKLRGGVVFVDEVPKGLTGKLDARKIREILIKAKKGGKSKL

RNC bearing the nascent chain of FtsQ, sequence (P06136 whole entry, looked up): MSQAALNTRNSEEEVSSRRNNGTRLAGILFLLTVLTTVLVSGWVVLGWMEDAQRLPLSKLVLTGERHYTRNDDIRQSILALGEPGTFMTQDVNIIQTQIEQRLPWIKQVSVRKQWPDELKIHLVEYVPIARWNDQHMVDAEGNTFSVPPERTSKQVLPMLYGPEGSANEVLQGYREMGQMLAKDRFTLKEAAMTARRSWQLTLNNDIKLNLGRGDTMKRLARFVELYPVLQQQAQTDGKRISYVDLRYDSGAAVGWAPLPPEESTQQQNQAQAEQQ

| Substance | fold weaker Kd (koff/kon) against wild-type SRP [1] [fold] | fold change of Kd against wild-type SRP [2] [fold] | other results |
| --- | --- | --- | --- |
| SRP(LM→AA) with BODIPY-FL labeled at residue 421 of Ffh (from UniProt P0AGD7 1-453) (complex) | 6 | – | – |
| SRP(LM→AA) with fluorescein-labeled Ffh(C421) (from UniProt P0AGD7 1-453) (complex) | – | < 3 | – |
| FtsY (from UniProt P10121 1-497) (receptor) | – | – | fold slower dissociation rate constant against wild-type SRP [3]: 80 fold |
| wild-type SRP with fluorescein-labeled Ffh(C421) (from UniProt P0AGD7 1-453) (complex) | – | – | Kd [2]: 1.7 nM; Kd [4]: 128 nM |

Further lines, with some results ahead:

| fold weaker Kd (koff/kon) against wild-type SRP [1] [fold] | fold change of Kd against wild-type SRP [2] [fold] | Substance | other results |
| --- | --- | --- | --- |
| – | < 3 | SRP(∆FL) with fluorescein-labeled Ffh(C421) (from UniProt P0AGD7 1-453) (complex) | – |
| 2 | – | SRP(∆FL) with BODIPY-FL labeled at residue 421 of Ffh (from UniProt P0AGD7 1-453) (complex) | – |
